T1: C448Y/E442Q Spastin (human, UniProt Q9UBP0 228-616, E442Q | C448Y)
T1 sequence: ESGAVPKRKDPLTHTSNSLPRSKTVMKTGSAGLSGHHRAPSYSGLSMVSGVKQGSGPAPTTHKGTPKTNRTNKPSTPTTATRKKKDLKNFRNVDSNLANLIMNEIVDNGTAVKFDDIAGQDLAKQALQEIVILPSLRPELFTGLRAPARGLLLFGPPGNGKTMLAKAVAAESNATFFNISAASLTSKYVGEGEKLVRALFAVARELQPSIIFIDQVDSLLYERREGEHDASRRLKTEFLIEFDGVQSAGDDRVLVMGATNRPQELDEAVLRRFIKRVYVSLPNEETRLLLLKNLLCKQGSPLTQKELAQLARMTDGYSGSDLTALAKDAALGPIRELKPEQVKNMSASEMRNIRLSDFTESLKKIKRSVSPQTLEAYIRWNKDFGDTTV


Tests used:
AUC = target: the molecule itself; experiment: AUC
SEC = target: the molecule itself; experiment: SEC
C448Y/E442Q Spastin = target: T1, C448Y/E442Q Spastin; experiment: pull-down

| Binder | binding result (SEC) | further results |
| --- | --- | --- |
| E442Q Spastin (enzyme) ESGAVPKRKDPLTHTSNSLPRSKTVMKTGSAGLSGHHRAPSYSGLSMVSGVKQGSGPAPTTHKGTPKTNRTNKPSTPTTATRKKKDLKNFRNVDSNLANLIMNEIVDNGTAVKFDDIAGQDLAKQALQEIVILPSLRPELFTGLRAPARGLLLFGPPGNGKTMLAKAVAAESNATFFNISAASLTSKYVGEGEKLVRALFAVARELQPSIIFIDQVDSLLCERREGEHDASRRLKTEFLIEFDGVQSAGDDRVLVMGATNRPQELDEAVLRRFIKRVYVSLPNEETRLLLLKNLLCKQGSPLTQKELAQLARMTDGYSGSDLTALAKDAALGPIRELKPEQVKNMSASEMRNIRLSDFTESLKKIKRSVSPQTLEAYIRWNKDFGDTTV | – | stoichiometry N (AUC): 6 |
| R451G/E442Q Spastin (enzyme) ESGAVPKRKDPLTHTSNSLPRSKTVMKTGSAGLSGHHRAPSYSGLSMVSGVKQGSGPAPTTHKGTPKTNRTNKPSTPTTATRKKKDLKNFRNVDSNLANLIMNEIVDNGTAVKFDDIAGQDLAKQALQEIVILPSLRPELFTGLRAPARGLLLFGPPGNGKTMLAKAVAAESNATFFNISAASLTSKYVGEGEKLVRALFAVARELQPSIIFIDQVDSLLCERGEGEHDASRRLKTEFLIEFDGVQSAGDDRVLVMGATNRPQELDEAVLRRFIKRVYVSLPNEETRLLLLKNLLCKQGSPLTQKELAQLARMTDGYSGSDLTALAKDAALGPIRELKPEQVKNMSASEMRNIRLSDFTESLKKIKRSVSPQTLEAYIRWNKDFGDTTV | binds | – |
| A457E/E442Q Spastin (enzyme) ESGAVPKRKDPLTHTSNSLPRSKTVMKTGSAGLSGHHRAPSYSGLSMVSGVKQGSGPAPTTHKGTPKTNRTNKPSTPTTATRKKKDLKNFRNVDSNLANLIMNEIVDNGTAVKFDDIAGQDLAKQALQEIVILPSLRPELFTGLRAPARGLLLFGPPGNGKTMLAKAVAAESNATFFNISAASLTSKYVGEGEKLVRALFAVARELQPSIIFIDQVDSLLCERREGEHDESRRLKTEFLIEFDGVQSAGDDRVLVMGATNRPQELDEAVLRRFIKRVYVSLPNEETRLLLLKNLLCKQGSPLTQKELAQLARMTDGYSGSDLTALAKDAALGPIRELKPEQVKNMSASEMRNIRLSDFTESLKKIKRSVSPQTLEAYIRWNKDFGDTTV | binds | – |
| GST–tubulin tail (GST fused to the C-terminal 104 amino acids of murine α-tubulin), ending in Tyr (domain or fragment) not shown | – | binding result (C448Y/E442Q Spastin): binds |
